From paper PMC4361618, “Nab3 Facilitates the Function of the TRAMP Complex in RNA Processing via Recruitment of Rrp6 Independent of Nrd1” (PLoS Genetics, 2015) come the findings set out here.

The labels stand for the following.
B1: His-tagged full-length Rrp6 (enzyme, S. cerevisiae, UniProt Q12149 1-733, looked up)
chain: MTSENPDVLLSRVINVVRAASSLASQDVDFYKNLDRGFSKDLKSKADKLADMANEIILSIDEHHESFELKEEDISDLWNNFGNIMDNLLEMSDHSLDKLNCAINSKSRGSDLQYLGEFSGKNFSPTKRVEKPQLKFKSPIDNSESHPFIPLLKEKPNALKPLSESLRLVDDDENNPSHYPHPYEYEIDHQEYSPEILQIREEIPSKSWDDSVPIWVDTSTELESMLEDLKNTKEIAVDLEHHDYRSYYGIVCLMQISTRERDYLVDTLKLRENLHILNEVFTNPSIVKVFHGAFMDIIWLQRDLGLYVVGLFDTYHASKAIGLPRHSLAYLLENFANFKTSKKYQLADWRIRPLSKPMTAYARADTHFLLNIYDQLRNKLIESNKLAGVLYESRNVAKRRFEYSKYRPLTPSSEVYSPIEKESPWKILMYQYNIPPEREVLVRELYQWRDLIARRDDESPRFVMPNQLLAALVAYTPTDVIGVVSLTNGVTEHVRQNAKLLANLIRDALRNIKNTNEEATPIPSSETKADGILLETISVPQIRDVMERFSVLCNSNISKSRAKPVTNSSILLGKILPREEHDIAYSKDGLPNKVKTEDIRIRAQNFKSALANLEDIIFEIEKPLVVPVKLEEIKTVDPASAPNHSPEIDNLDDLVVLKKKNIQKKQPAKEKGVTEKDAVDYSKIPNILSNKPGQNNRQQKKRRFDPSSSDSNGPRAAKKRRPAAKGKNLSFKR
notes: Rrp6, S. cerevisiae nuclear exosome 3'-5' riboexonuclease, full length, cloned into pET30a-TEV; also called His-Rrp6; His6-RRP6; source: E. coli DE3 cells, purified (nickel-NTA agarose, batch)

In experiment [1] the target is T1, recombinant GST-tagged full-length Nab3 (S. cerevisiae, UniProt P38996 1-802).
T1 construct: Nab3, S. cerevisiae, full length, cloned into pGEX-TEV; also called GST-Nab3; source: E. coli DE3 cells, purified (glutathione Sepharose 4B, batch)
T1 sequence (looked up): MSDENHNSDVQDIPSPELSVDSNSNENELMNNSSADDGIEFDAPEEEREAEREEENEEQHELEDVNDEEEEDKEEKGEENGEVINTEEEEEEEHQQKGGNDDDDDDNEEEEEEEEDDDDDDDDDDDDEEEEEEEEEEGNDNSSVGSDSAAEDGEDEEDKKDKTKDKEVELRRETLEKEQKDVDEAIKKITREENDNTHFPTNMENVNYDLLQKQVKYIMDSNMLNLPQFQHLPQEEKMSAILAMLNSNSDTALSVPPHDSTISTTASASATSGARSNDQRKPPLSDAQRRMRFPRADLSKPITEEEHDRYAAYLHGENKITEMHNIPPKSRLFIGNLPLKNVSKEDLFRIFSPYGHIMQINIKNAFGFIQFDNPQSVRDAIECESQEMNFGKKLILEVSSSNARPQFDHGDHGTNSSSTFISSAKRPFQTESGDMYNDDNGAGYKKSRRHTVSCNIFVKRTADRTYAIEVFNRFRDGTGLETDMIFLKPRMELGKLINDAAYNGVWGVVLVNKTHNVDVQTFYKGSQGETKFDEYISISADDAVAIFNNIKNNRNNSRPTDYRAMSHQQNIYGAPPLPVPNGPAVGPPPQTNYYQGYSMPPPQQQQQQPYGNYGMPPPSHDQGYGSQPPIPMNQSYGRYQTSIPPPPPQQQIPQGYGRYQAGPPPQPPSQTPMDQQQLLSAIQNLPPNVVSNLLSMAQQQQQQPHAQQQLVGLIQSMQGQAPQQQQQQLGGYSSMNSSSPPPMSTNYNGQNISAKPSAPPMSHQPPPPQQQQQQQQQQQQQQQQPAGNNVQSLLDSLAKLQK
Nature of the experiment: pull-down; 8 μg purified GST fusion incubated with 14 μg purified His-Rrp6 and glutathione Sepharose 4B in IPP100 buffer (10 mM Tris-HCl pH 8, 100 mM NaCl, 0.1% NP-40) with 10 mg/ml BSA, 2 mM DTT, 2 hr at 4°C; anti-His immunoblot. To be noted: both partners purified. Background: In western blotting, separated proteins are transferred to a membrane and probed.

For experiment [2], the target named is B1. The experiment is described as above. To be noted: both partners purified.
The next experiment concerns the target T2, TAP-tagged Nrd1 (S. cerevisiae, UniProt P53617 1-575).
T2 construct: also called Nrd1-TAP; source: S. cerevisiae NRD1-TAP strain (ACY2293; Thermo Scientific Open Biosystems), in lysate
T2 sequence (looked up): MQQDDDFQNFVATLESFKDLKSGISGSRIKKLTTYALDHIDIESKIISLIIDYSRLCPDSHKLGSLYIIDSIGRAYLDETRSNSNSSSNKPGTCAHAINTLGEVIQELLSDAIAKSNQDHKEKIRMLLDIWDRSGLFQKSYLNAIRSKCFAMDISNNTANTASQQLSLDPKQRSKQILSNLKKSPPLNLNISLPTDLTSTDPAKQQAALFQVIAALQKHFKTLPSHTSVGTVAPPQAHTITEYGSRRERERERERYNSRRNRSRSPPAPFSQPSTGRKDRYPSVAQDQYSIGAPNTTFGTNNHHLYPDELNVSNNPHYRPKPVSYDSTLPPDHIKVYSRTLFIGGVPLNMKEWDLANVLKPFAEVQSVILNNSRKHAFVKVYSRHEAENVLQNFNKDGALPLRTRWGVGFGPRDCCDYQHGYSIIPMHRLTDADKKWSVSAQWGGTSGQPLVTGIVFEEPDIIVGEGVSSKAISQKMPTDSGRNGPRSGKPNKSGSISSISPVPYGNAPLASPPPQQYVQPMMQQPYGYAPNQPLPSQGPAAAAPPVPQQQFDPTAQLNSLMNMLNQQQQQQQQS
Briefly: co-IP; TAP-tagged Nrd1 precipitated on IgG Sepharose beads from lysates of NRD1-TAP yeast cells expressing Myc-tagged Nab3 proteins; IPP150 buffer (10 mM Tris-HCl pH 8, 150 mM NaCl, 0.1% NP-40), overnight at 4°C; anti-Myc immunoblot; % bound relative to input and to bound wild-type Nab3. To be noted: partners not purified.

Regarding B1, in experiment [1], the binding result was “binds”.

B2: GST-tagged Rrp47 (natural protein, S. cerevisiae, UniProt P38801 1-184, looked up)
chain: MEDIEKIKPYVRSFSKALDELKPEIEKLTSKSLDEQLLLLSDERAKLELINRYAYVLSSLMFANMKVLGVKDMSPILGELKRVKSYMDKAKQYDNRITKSNEKSQAEQEKAKNIISNVLDGNKNQFEPSISRSNFQGKHTKFENDELAESTTTKIIDSTDHIRKASSKKSKRLDKVGKKKGGKK
notes: Rrp47, S. cerevisiae exosome cofactor; RRP47 gene amplified (W303 gDNA template) and cloned into pGEX-TEV; also called GST-Rrp47; source: E. coli DE3 cells, purified (glutathione Sepharose 4B, batch)
Take B2: the binding result in experiment [2] was “binds”.

B3: Myc-tagged nab3-ΔNBD mutant (Δ204–248) (natural protein, S. cerevisiae, UniProt P38996 1-802, looked up)
chain: MSDENHNSDVQDIPSPELSVDSNSNENELMNNSSADDGIEFDAPEEEREAEREEENEEQHELEDVNDEEEEDKEEKGEENGEVINTEEEEEEEHQQKGGNDDDDDDNEEEEEEEEDDDDDDDDDDDDEEEEEEEEEEGNDNSSVGSDSAAEDGEDEEDKKDKTKDKEVELRRETLEKEQKDVDEAIKKITREENDNTHFPTNMSDTALSVPPHDSTISTTASASATSGARSNDQRKPPLSDAQRRMRFPRADLSKPITEEEHDRYAAYLHGENKITEMHNIPPKSRLFIGNLPLKNVSKEDLFRIFSPYGHIMQINIKNAFGFIQFDNPQSVRDAIECESQEMNFGKKLILEVSSSNARPQFDHGDHGTNSSSTFISSAKRPFQTESGDMYNDDNGAGYKKSRRHTVSCNIFVKRTADRTYAIEVFNRFRDGTGLETDMIFLKPRMELGKLINDAAYNGVWGVVLVNKTHNVDVQTFYKGSQGETKFDEYISISADDAVAIFNNIKNNRNNSRPTDYRAMSHQQNIYGAPPLPVPNGPAVGPPPQTNYYQGYSMPPPQQQQQQPYGNYGMPPPSHDQGYGSQPPIPMNQSYGRYQTSIPPPPPQQQIPQGYGRYQAGPPPQPPSQTPMDQQQLLSAIQNLPPNVVSNLLSMAQQQQQQPHAQQQLVGLIQSMQGQAPQQQQQQLGGYSSMNSSSPPPMSTNYNGQNISAKPSAPPMSHQPPPPQQQQQQQQQQQQQQQQPAGNNVQSLLDSLAKLQK
notes: also called nab3 NBD mutant; nab3-NBD; source: S. cerevisiae (NRD1-TAP, RRP6-TAP or DIS3-TAP cells), 2μ URA3 plasmid, in lysate; not shown: 2xMyc, C-terminal, kept
As for B3, in the experiment with TAP-tagged Nrd1, the “% bound relative to wild-type Nab3” value stood at 8%.
